According to paper PMC6555848, “Structural and functional consequences of the STAT5B^N642H driver mutation” (Nature Communications, 2019):

Legend:
[1] = biological target: the molecule itself; experiment: crystal structure; unphosphorylated core fragment A136-Q703; two molecules per asymmetric unit; STAT5B 3.29 Å, STAT5B^N642H 3.21 Å
[2] = biological target: the molecule itself; experiment: dynamic light scattering; 50 µM protein in 20 mM HEPES pH 7.4, 150 mM NaCl, 2% glycerol; unphosphorylated protein, self-association

B1: human STAT5B core fragment (A136-Q703) (domain or fragment, UniProt P51692 136-703, looked up)
chain: AMSQKHLQINQTFEELRLVTQDTENELKKLQQTQEYFIIQYQESLRIQAQFGPLAQLSPQERLSRETALQQKQVSLEAWLQREAQTLQQYRVELAEKHQKTLQLLRKQQTIILDDELIQWKRRQQLAGNGGPPEGSLDVLQSWCEKLAEIIWQNRQQIRRAEHLCQQLPIPGPVEEMLAEVNATITDIISALVTSTFIIEKQPPQVLKTQTKFAATVRLLVGGKLNVHMNPPQVKATIISEQQAKSLLKNENTRNDYSGEILNNCCVMEYHQATGTLSAHFRNMSLKRIKRSDRRGAESVTEEKFTILFESQFSVGGNELVFQVKTLSLPVVVIVHGSQDNNATATVLWDNAFAEPGRVPFAVPDKVLWPQLCEALNMKFKAEVQSNRGLTKENLVFLAQKLFNNSSSHLEDYSGLSVSWSQFNRENLPGRNYTFWQWFDGVMEVLKKHLKPHWNDGAILGFVNKQQAHDLLINKPDGTFLLRFSDSEIGGITIAWKFDSQERMFWNLMPFTTRDFSIRSLADRLGDLNYLIYVFPDRPKDEVYSKYYTPVPCESATAKAVDGYVKPQ
notes: human STAT5B core fragment A136-Q703 (printed once as S136-Q703), unphosphorylated; Two molecules per asymmetric unit; described as the unphosphorylated dimer; also called unphosphorylated STAT core fragment; source: E. coli BL21 (DE3) RILP, purified (Ni-NTA, Ulp1 cleavage, SEC); not shown: His, N-terminal, cleaved; SUMO, N-terminal, cleaved
[1]
  binding result: binds

B2: STAT5B^N642H core fragment (A136-Q703) (domain or fragment, human, UniProt P51692 136-703, looked up)
chain: AMSQKHLQINQTFEELRLVTQDTENELKKLQQTQEYFIIQYQESLRIQAQFGPLAQLSPQERLSRETALQQKQVSLEAWLQREAQTLQQYRVELAEKHQKTLQLLRKQQTIILDDELIQWKRRQQLAGNGGPPEGSLDVLQSWCEKLAEIIWQNRQQIRRAEHLCQQLPIPGPVEEMLAEVNATITDIISALVTSTFIIEKQPPQVLKTQTKFAATVRLLVGGKLNVHMNPPQVKATIISEQQAKSLLKNENTRNDYSGEILNNCCVMEYHQATGTLSAHFRNMSLKRIKRSDRRGAESVTEEKFTILFESQFSVGGNELVFQVKTLSLPVVVIVHGSQDNNATATVLWDNAFAEPGRVPFAVPDKVLWPQLCEALNMKFKAEVQSNRGLTKENLVFLAQKLFNNSSSHLEDYSGLSVSWSQFNRENLPGRNYTFWQWFDGVMEVLKKHLKPHWNDGAILGFVNKQQAHDLLINKPDGTFLLRFSDSEIGGITIAWKFDSQERMFWHLMPFTTRDFSIRSLADRLGDLNYLIYVFPDRPKDEVYSKYYTPVPCESATAKAVDGYVKPQ
notes: human STAT5B core fragment A136-Q703 with the patient-derived mutation N642H; Two molecules per asymmetric unit; described as the unphosphorylated dimer; source: E. coli BL21 (DE3) RILP, purified (Ni-NTA, Ulp1 cleavage, SEC); not shown: His, N-terminal, cleaved; SUMO, N-terminal, cleaved
[1]
  binding result: binds

B3: full-length human STAT5B (M1-S787) (natural protein, UniProt P51692 1-787, looked up)
chain: MAVWIQAQQLQGEALHQMQALYGQHFPIEVRHYLSQWIESQAWDSVDLDNPQENIKATQLLEGLVQELQKKAEHQVGEDGFLLKIKLGHYATQLQNTYDRCPMELVRCIRHILYNEQRLVREANNGSSPAGSLADAMSQKHLQINQTFEELRLVTQDTENELKKLQQTQEYFIIQYQESLRIQAQFGPLAQLSPQERLSRETALQQKQVSLEAWLQREAQTLQQYRVELAEKHQKTLQLLRKQQTIILDDELIQWKRRQQLAGNGGPPEGSLDVLQSWCEKLAEIIWQNRQQIRRAEHLCQQLPIPGPVEEMLAEVNATITDIISALVTSTFIIEKQPPQVLKTQTKFAATVRLLVGGKLNVHMNPPQVKATIISEQQAKSLLKNENTRNDYSGEILNNCCVMEYHQATGTLSAHFRNMSLKRIKRSDRRGAESVTEEKFTILFESQFSVGGNELVFQVKTLSLPVVVIVHGSQDNNATATVLWDNAFAEPGRVPFAVPDKVLWPQLCEALNMKFKAEVQSNRGLTKENLVFLAQKLFNNSSSHLEDYSGLSVSWSQFNRENLPGRNYTFWQWFDGVMEVLKKHLKPHWNDGAILGFVNKQQAHDLLINKPDGTFLLRFSDSEIGGITIAWKFDSQERMFWNLMPFTTRDFSIRSLADRLGDLNYLIYVFPDRPKDEVYSKYYTPVPCESATAKAVDGYVKPQIKQVVPEFVNASADAGGGSATYMDQAPSPAVCPQAHYNMYPQNPDSVLDTDGDFDLEDTMDVARRVEELLGRPMDSQWIPHAQS
notes: human STAT5B, full length M1-S787, gene NCBI NM_012448.3, unphosphorylated; also called wild-type STAT5B; wild-type; source: E. coli BL21 (DE3) RILP, purified (Ni-NTA, Ulp1 cleavage, SEC); not shown: His, N-terminal, cleaved; SUMO, N-terminal, cleaved
[2]
  stoichiometry N: 2
